B1: PWWP2B (parent)
chain: TIRLRPRQVLCEKCKSTLSPPEAS
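Further: lentivirally expressed fusions sorted by FACS into six bins by GFP to DsRed ratio, PSI derived from sequencing read proportions per bin multiplied by bin number.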

Variants of: B1
Experiment: protein stability index of a GFP-peptide fusion (GPS, HEK-293T) (PSI 1-6); higher = more stable
Details: c terminus: a fixed tail appended
Work on C14P yielded a protein stability index of 4.29. In the case of C14L, the protein stability index is reported as 3.13. C14E gave a protein stability index of 4.23. Variant C14Q has a protein stability index of 4.05. Variant C14R has a protein stability index of 3.32. In the case of C14S, the protein stability index is reported as 3.84. With C14M the protein stability index was 3.44. C14Y showed a protein stability index of 3.45. For C14I, the protein stability index was 3.64. C14N gave a protein stability index of 4.05. Work on C14T yielded a protein stability index of 4.22. Variant C14V has a protein stability index of 3.52. In the case of C14D, the protein stability index is reported as 4.04. C14A showed a protein stability index of 3.85. For C14F, the protein stability index was 3.19. Work on C14W yielded a protein stability index of 2.58. C14G showed a protein stability index of 4.08. C14K showed a protein stability index of 4.05. C14H showed a protein stability index of 3.52. In the case of S16E, the protein stability index is reported as 3.65. In the case of S16Q, the protein stability index is reported as 3.35. Work on S16P yielded a protein stability index of 2.73. Work on S16H yielded a protein stability index of 2.76. In the case of S16C, the protein stability index is reported as 2.98. With S16A the protein stability index was 3.08. S16G showed a protein stability index of 3.07. Variant S16F has a protein stability index of 2.18. Work on S16N yielded a protein stability index of 3.34. S16L gave a protein stability index of 2.59. S16R showed a protein stability index of 3.2. S16K showed a protein stability index of 3.09. Variant S16I has a protein stability index of 2.66. With S16V the protein stability index was 2.61. S16Y showed a protein stability index of 2.27. For S16M, the protein stability index was 2.94. For S16W, the protein stability index was 1.96. With S16D the protein stability index was 2.78. In the case of S16T, the protein stability index is reported as 2.92. K15A showed a protein stability index of 2.71. Work on K15I yielded a protein stability index of 2.51. K15S gave a protein stability index of 2.74. Variant K15M has a protein stability index of 2.79. Variant K15T has a protein stability index of 3.07. K15G showed a protein stability index of 2.83. Variant K15H has a protein stability index of 2.57. For K15P, the protein stability index was 4.03. Work on K15N yielded a protein stability index of 3.26. Work on K15L yielded a protein stability index of 2.76. K15F showed a protein stability index of 3.01. Work on K15V yielded a protein stability index of 2.71. K15W gave a protein stability index of 2.76. K15D gave a protein stability index of 3.58. Work on K15Q yielded a protein stability index of 2.72. With K15C the protein stability index was 2.41. Variant K15E has a protein stability index of 3.72. Variant K15R has a protein stability index of 2.59. In the case of K15Y, the protein stability index is reported as 2.73. Work on T17Y yielded a protein stability index of 2.18. Work on T17H yielded a protein stability index of 2.76. T17A showed a protein stability index of 3.33. In the case of T17G, the protein stability index is reported as 2.82. T17K showed a protein stability index of 2.62. For T17P, the protein stability index was 3.44. In the case of T17F, the protein stability index is reported as 2.56. Variant T17E has a protein stability index of 3.97. T17Q gave a protein stability index of 2.78. In the case of T17L, the protein stability index is reported as 3. Variant T17D has a protein stability index of 3.19. With T17I the protein stability index was 2.88. In the case of T17S, the protein stability index is reported as 2.96. Variant T17R has a protein stability index of 2.77. In the case of T17V, the protein stability index is reported as 2.48. In the case of T17W, the protein stability index is reported as 1.89. Work on T17N yielded a protein stability index of 2.76. With T17M the protein stability index was 2.77. T17C gave a protein stability index of 2.5. L18R gave a protein stability index of 2.49. Variant L18N has a protein stability index of 3.63. Variant L18G has a protein stability index of 3.7. In the case of L18S, the protein stability index is reported as 2.87. For L18M, the protein stability index was 3.94. Variant L18Y has a protein stability index of 2.83. With L18K the protein stability index was 3.11. With L18W the protein stability index was 1.96. Variant L18I has a protein stability index of 3.03. With L18P the protein stability index was 3.94. L18V showed a protein stability index of 3.18. Work on L18D yielded a protein stability index of 3.78. For L18Q, the protein stability index was 3.05. Variant L18E has a protein stability index of 3.92. L18C showed a protein stability index of 3.15. Work on L18T yielded a protein stability index of 3.08. L18A gave a protein stability index of 2.86. L18H showed a protein stability index of 3.85. L18F showed a protein stability index of 2.89. For K13V, the protein stability index was 2.71. For K13S, the protein stability index was 3. In the case of K13I, the protein stability index is reported as 2.73. Work on K13H yielded a protein stability index of 2.53. For K13Q, the protein stability index was 2.83. In the case of K13Y, the protein stability index is reported as 2.24. With K13M the protein stability index was 2.84. For K13E, the protein stability index was 3.32. Variant K13A has a protein stability index of 2.72. For K13T, the protein stability index was 2.39. K13N gave a protein stability index of 2.78. K13F gave a protein stability index of 2.46. K13C showed a protein stability index of 2.74. With K13G the protein stability index was 2.6. In the case of K13L, the protein stability index is reported as 1.81. For K13P, the protein stability index was 3.22. K13R showed a protein stability index of 3.37. For K13W, the protein stability index was 2.49. K13D gave a protein stability index of 3.39. E12S gave a protein stability index of 3.01. E12N gave a protein stability index of 2.81. In the case of E12Q, the protein stability index is reported as 2.33. Variant E12Y has a protein stability index of 2.2. Work on E12I yielded a protein stability index of 1.93. E12V gave a protein stability index of 2.39. With E12F the protein stability index was 2.25. Variant E12P has a protein stability index of 2.99. E12K showed a protein stability index of 2.42. E12R gave a protein stability index of 3.08. Work on E12H yielded a protein stability index of 3.03. With E12C the protein stability index was 2.26. In the case of E12W, the protein stability index is reported as 2.28. For E12L, the protein stability index was 1.97. In the case of E12G, the protein stability index is reported as 2.59. Work on E12T yielded a protein stability index of 2.82. E12M showed a protein stability index of 2.26. For E12A, the protein stability index was 2.59. E12D gave a protein stability index of 3.28. Work on L10T yielded a protein stability index of 3.43. In the case of L10K, the protein stability index is reported as 3.38. L10G showed a protein stability index of 3.17. For L10W, the protein stability index was 2.48. L10F showed a protein stability index of 1.94. For L10S, the protein stability index was 3.13. Variant L10V has a protein stability index of 3.61. In the case of L10I, the protein stability index is reported as 2.83. Variant L10R has a protein stability index of 2.84. L10H gave a protein stability index of 3.3. For L10M, the protein stability index was 2.83. Variant L10Y has a protein stability index of 2.5. Variant L10N has a protein stability index of 3.53. Work on L10P yielded a protein stability index of 3.37. In the case of L10Q, the protein stability index is reported as 3.53. In the case of C11V, the protein stability index is reported as 3.25. With C11Q the protein stability index was 3.57. Variant C11N has a protein stability index of 3.62. C11F showed a protein stability index of 2.53. C11W gave a protein stability index of 2.23. C11L gave a protein stability index of 2.84. Work on C11S yielded a protein stability index of 3.73. C11A showed a protein stability index of 3.06. C11R gave a protein stability index of 3.4. Variant C11G has a protein stability index of 3.85. In the case of C11K, the protein stability index is reported as 3.58. C11D gave a protein stability index of 3.93. Work on C11P yielded a protein stability index of 3.46. C11M showed a protein stability index of 2.86. C11Y showed a protein stability index of 3.25. With C11T the protein stability index was 3.6. For C11E, the protein stability index was 4.15. For C11I, the protein stability index was 3.33. With C11H the protein stability index was 3.13.
